# Data reported in patent publication US20180251559A1, “Methods for the Modulation of LGALS3BP to Treat Systemic Lupus Erythematosus” (Merck Patent GmbH, priority 2015, published 2018).
# B1: LGALS3BP: secreted scavenger receptor family protein, full length human sequence SEQ ID NO: 1; used as recombinant protein (protein, listed as Homo sapiens)
# chain: MTPPRLFWVWLLVAGTQGVNDGDMRLADGGATNQGRVEIFYRGQWGTVCDNLWDLTDASVVCRALGFENATQALGRAAFGQGSGPIMLDEVQCTGTEASLADCKSLGWLKSNCRHERDAGVVCTNETRSTHTLDLSRELSEALGQIFDSQRGCDLSISVNVQGEDALGFCGHTVILTANLEAQALWKEPGSNVTMSVDAECVPMVRDLLRYFYSRRIDITLSSVKCFHKLASAYGARQLQGYCASLFAILLPQDPSFQMPLDLYAYAVATGDALLEKLCLQFLAWNFEALTQAEAWPSVPTDLLQLLLPRSDLAVPSELALLKAVDTWSWGERASHEEVEGLVEKIRFPMMLPEELFELQFNLSLYWSHEALFQKKTLQALEFHTVPFQLLARYKGLNLTEDTYKPRIYTSPTWSAFVTDSSWSARKSQLVYQSRRGPLVKYSSDYFQAPSDYRYYPYQSFQTPQHPSFLFQDKRVSWSLVYLPTIQSCWNYGFSCSSDELPVLGLTKSGGSDRTIAYENKALMLCEGLFVADVTDFEGWKAAIPSALDTNSSKSTSSFPCPAGHFNGFRTVIRPFYLTNSSGVD
# B2: IFN-γ: interferon used as macrophage stimulus (protein, UniProt P01579 24-161, looked up)
# Interferon gamma: QDPYVKEAENLKKYFNAGHSDVADNGTLFLGILKNWKEESDRKIMQSQIVSFYFKLFKNFKDDQSIQKSVETIKEDMNVKFFNSNKKKRDDFEKLTNYSVTDLNVQRKAIHELIQVMAELSPAAKTGKRKRSQMLFRG
# What was measured:
# Assay type in all cases: cell-based
# primary human B cells [1] = assay: IgG secretion by stimulated primary human B cells (AlphaLISA); settings: for IC50: pre-incubated 30 minutes, TLR7 agonist for 5 days, AlphaLISA, read-out: IgG production
# Experimental: (§1) A library of conditioned cell culture supernatants with secreted proteins was added and IgG secretion and cell viability (CTG, CellTiter-Glo) measured at the end of culture.
# IgG was measure by AlphaLISA 5 days after stimulation.
# FIG. 3A-1 and FIG. 3A-2 show data from isolated primary human B cells that were stimulated with small molecule TLR7 agonist in the presence of potential LGALS3BP inhibitors and controls (left). Anti-LGALS3BP antibody was added to primary human B cells activated with CpG or anti-IgM/CD40L/CpG (right). IgG secretion was measured 5 days later by AlphaLISA.
# (§2) To identify secreted proteins that affect IgG production by B cells a selection of proteins from the human secretome in an IgG secretion assay were screened using primary human B cells. B cells from healthy volunteers were exposed to 1400 recombinantly expressed secreted proteins before activation with a TLR7 small molecule agonist. After 5 days IgG was measured to identify proteins that enhance or inhibit IgG secretion. […] LGALS3BP was independently identified as the most differentially regulated gene in blood from lupus nephritis patients compared to healthy volunteers.
# (§3) The effect of anti-LGALS3BP antibodies on IgG secretion by primary human B cells was evaluated. IgG secretion by TLR7 activated B cells was inhibited by almost 90% in presence of anti-LGALS3BP antibody or anti-LGALS3BP F(ab′)2 (74%) to exclude inhibition through FcγRIIb present on B cells (FIGS. 3A-1 and 3A-2). […] The same inhibitory effect of the LGALS3BP antibody was observed when B cells were activated with CpG (94%) or anti-IgM/CD40L/CpG (77%). IgM secretion was inhibited by antibody blockade as well excluding a role of LGALS3BP in isotype switching (FIG. 3B-1, FIG. 3B-2 and FIG. 3B-3). […] IL-6 secretion was measured to investigate if LGALS3BP blockade interferes with TLR7 activation and signaling thereby reducing B cell proliferation. A 37% decrease in IL-6 production was observed 48 h after B cell stimulation in the presence of anti-LGALS3BP antibody. This reduction was LGALS3BP specific and not mediated through FcγRIIb given the same effect was measured in the presence of Fc block or with anti-LGALS3BP F(ab′)2. Lactose also had the same effect, thereby, excluding a direct effect of the antibody through cross-linking the surface-bound protein. […] To test if anti-LGALS3BP antibodies reduce B cell survival by blocking B cell activation CD69 upregulation was measured 16 h after activation with TLR7 agonist (FIG. 3C-1, FIG. 3C-2 and FIG. 3C-3). No difference in percentage of CD69^+ activated cells or expression levels of CD69 was observed when an anti-LGALS3BP antibody was added. LGALS3BP blockade inhibits IgG secretion independent of the stimulation protocol used. To determine if LGALS3BP blockade has an effect on B cell survival in the absence of stimulation additional experiments were conducted. Adding the antibody to non-stimulated B cells reduced viability by 66% (FIG. 3D-1 and FIG. 3D-2). This effect was most pronounced in B cells.
# (§4) Primary B cells from healthy human donors were stimulated in the presence of galectin-3 inhibitors in order to determine if galectin-3 plays a role in the function of LGALS3BP in B cell biology. Specifically, freshly isolated B cells from healthy volunteers were pre-incubated with galectin-3 (Gal-3) inhibitors for 30 minutes before stimulation with TLR7 agonist for 5 days. Supernatants were harvested and IgG measured by AlphaLISA. Cell viability was measured by CellTiter-Glo (ATP production).
# primary human B cells [2] = assay: IL-6 secretion by TLR7 agonist-activated B cells (AlphaLISA); settings: 48 h after B cell stimulation with TLR7 agonist
# Experimental: IL-6 secretion was measured 2 days after stimulation by AlphaLISA.
# as §3, with “F(ab′)2.” for “F(ab′)2. Lactose also had the same effect, thereby, excluding a direct effect of the antibody through cross-linking the surface-bound protein.”, “No difference in percentage of CD69^+ activated cells or expression levels of CD69 was observed when an anti-LGALS3BP antibody was added. LGALS3BP blockade inhibits IgG secretion independent of the stimulation protocol used. To determine if LGALS3BP blockade has an effect on B cell survival in the absence of stimulation additional experiments were conducted. Adding the antibody to non-stimulated B cells reduced viability by 66% (FIG. 3D-1 and FIG. 3D-2). This effect was most pronounced in B cells.” left out
# primary human B cells [3] = assay: Viability of TLR7 agonist-stimulated B cells (CellTiter-Glo, ATP); settings: for IC50: pre-incubated 30 minutes, TLR7 agonist for 5 days, CellTiter-Glo
# Experimental: as §1
# B cell viability was measured 5 days later by CellTiter-Glo.
# as §2, §4
# primary human B cells [4] = assay: B cell activation, CD69 expression by flow cytometry; settings: 16 h after stimulation with TLR7 agonist
# Experimental: FIG. 2A-1 and FIG. 2A-2 show data from B cells stimulated with small molecule TLR7 agonist in the presence of increasing concentrations of purified recombinant LGALS3BP. B cell activation was measured 16 h later by flow cytometry quantifying CD69 expression.
# To investigate if addition of LGALS3BP affects activation of naïve B cells CD69 expression was measured 16 h after stimulation with TLR7 agonist. All B cells had increased CD69 expression compared to non-stimulated cells but no change was seen upon addition of various concentrations of recombinant LGALS3BP (FIG. 2A-1 and FIG. 2A-2). The localization of endogenous LGALS3BP in primary human B cells with an antibody specific for LGALS3BP was then evaluated (FIG. 2b). […]
# The effect of anti-LGALS3BP antibodies on IgG secretion by primary human B cells was evaluated. […] IL-6 secretion was measured to investigate if LGALS3BP blockade interferes with TLR7 activation and signaling thereby reducing B cell proliferation. […] This reduction was LGALS3BP specific and not mediated through FcγRIIb given the same effect was measured in the presence of Fc block or with anti-LGALS3BP F(ab′)2. […] To test if anti-LGALS3BP antibodies reduce B cell survival by blocking B cell activation CD69 upregulation was measured 16 h after activation with TLR7 agonist (FIG. 3C-1, FIG. 3C-2 and FIG. 3C-3). […]
# [5] = system: primary human macrophages; assay: LGALS3BP induction in in vitro differentiated macrophages (QPCR, ELISA)
# Text: Expression between samples was normalized using HPRT1 as a housekeeping gene. […] LGALS3BP has an IRF binding site consistent with regulation by type I interferons. To determine which pathways can induce LGALS3BP expression, primary human monocytes were differentiated into macrophages in vitro and subsequently were stimulated with IFN-α, IFN-γ, TLR4 agonist (LPS), TLR7/8 agonist (resiquimod) and TLR9 agonist (CpG). […] All stimuli induced secretion of IL-6.
molecule,measurement,setting,value
"OC[C@H]1O[C@@H](O[C@H]2[C@H](O)[C@@H](O)C(O)O[C@@H]2CO)[C@H](O)[C@@H](O)[C@H]1O (stereo partly drawn) [Lactose, reference compound]",inhibition of IgG secretion,"primary human B cells [1]; TLR7 activated B cells, 5 days",59%
same,"IL-6 production, effect in words",primary human B cells [2],same effect
"CC(=O)N[C@H]1C(O)O[C@H](CO)[C@@H](O[C@@H]2O[C@H](CO)[C@H](O)[C@H](O)[C@H]2O)[C@@H]1O (stereo partly drawn) [LacNAc, N-Acetyl-D-lactosamine, N-Acetyl-D-lactosamine, reference compound]",IC50,"primary human B cells [1]; Homo sapiens, B-cell",> 10 µM
same,IC50,"primary human B cells [3]; Homo sapiens, B-cell",> 10 µM
"CCCO[C@@H]1O[C@H](CO)[C@@H](O[C@@H]2O[C@H](CO)[C@H](O)[C@H](O)[C@H]2O)[C@H](O)[C@H]1O [Beta n-propal lactoside, reference compound]",IC50,primary human B cells [1],> 10 µM
same,IC50,primary human B cells [3],> 10 µM
"OC[C@H]1O[C@@](CO)(O[C@H]2O[C@H](CO)[C@@H](O)[C@H](O)[C@H]2O)[C@@H](O)[C@@H]1O [sucrose, reference compound]","IgG secretion, effect in words",primary human B cells [1]; TLR7 activated B cells,did not inhibit IgG secretion
B1,increase in IgG,"primary human B cells [1]; purified recombinant protein, B cells stimulated with TLR9 agonist CpG",1.9 fold
same,enhanced IgG production,"primary human B cells [1]; purified recombinant protein, TLR7 agonist, B cells from 6 healthy volunteers, 5 days",1.6 fold
same,increase in IgG,"primary human B cells [1]; purified recombinant protein, activation cocktail with anti-IgM, CD40L and CpG",1.2 fold
same,enhanced IgG secretion,"primary human B cells [1]; secretome screen, recombinantly expressed secreted proteins, TLR7 small molecule agonist, 5 days",4.1 fold
same,cell viability and metabolic activity (ATP measured by CellTiter-Glo assay),"primary human B cells [3]; secretome screen, TLR7 small molecule agonist, 5 days",doubled
same,CD69 expression / percentage of CD69+ activated cells,primary human B cells [4],no change
B2,secretion of the LGALS3BP protein,"[5]; ELISA in supernatants, stimuli for 20 h",increased secretion
same,LGALS3BP mRNA expression,"[5]; QPCR, stimuli for 6 h",induced
